From the nanobody polyreactivity screen of Harvey et al. (2022)

Test: yeast display, Sf9 membrane polyspecificity reagent, FACS + sequencing; frameworks hold sequencing errors
Method in brief: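 Galactose induction of a Saccharomyces cerevisiae BJ5465 synthetic nanobody display library ran 36–48 hours. The cells were then stained for 1 hour at 4 °C with 10% biotinylated, detergent-solubilized Sf9 membrane reagent, pulled down on streptavidin microbeads and FACS-sorted into low and high (top ~1%) gates on expression and reagent-binding fluorescence. Labels for polyreactivity follow the gate of origin.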

QVQLVESGGGLVQAGGSLRLRCAASGFTFFAYALGWYRQAPGKESELVAGISRSGGRTYYADSVKWRFTISRDNAKNTVYLQMNSLKPEDTAVYYCAAGIPVTSRHLGYWGQGTQVTVSS
polyreactivity (PSR sort gate): high polyreactivity

QVQLVESGGGLVQAGGSLRLSCAASGSIFSRNAMGWYRQAPGKERELVAAISYSSGSTYYADSVKGRFTISRDHAKNTVYLQMNSLTPEDTAVYYCAADTTKLQGVEGDYWGQGTQVTVSS
polyreactivity (PSR sort gate): low polyreactivity

QVQLVESSGGLVQAGGSLRLSCAASGRTFSRNAMGWYRQAPGKERELVAAITYSGGTTYYADSVKGRFTISRDNAKNTVYLQMNSLKPEDTAVYYCATPSRKSGVGYPSYNYWGQGTQVTVSS
polyreactivity (PSR sort gate): high polyreactivity

QVQLVESAGGLVQAGGRLRLSCAASGIIFEQYAMGSYRQAPGKERELVAAISSGCTTYADSVKGRFTISRDNAKNTVYLQMNSLTPEDTAVYYGNADLSWDGPDWSDYEYDYWGQGTQVTVSS
polyreactivity (PSR sort gate): low polyreactivity

QVQLVESGGGLVQAGGSLRLTCAASGNTFYGKTIGWYRQAPGKERELVAAIRFTGGSTTYADSVKGRFTISRDNAKITVYLQLNRLKPEDTAVYYCNTVWVSFSSIYHEYDYWGQGTQVTVSS
polyreactivity (PSR sort gate): low polyreactivity

QVQLVESGGGLVQAGGSLRLSCAASGSTLRSKAMGWYRQAQGKERELVASISSGGSTSYADSVKGRFTISRDNAKNTVYLQMNSLKPEDTAVYYCAADNSVGSYDYWGQGTQVTVSS
polyreactivity (PSR sort gate): low polyreactivity

QVQLVESGGGLVQAGGSLRLSCAASGFIFWYYAMGWYRQAPGKERELVAAISSRGGSTYYADSVKGRFTISRDNAKNTVYLQMNSLKPEDTAVYYCNARYVYYGSGNDYWGQGTQVTVSS
polyreactivity (PSR sort gate): high polyreactivity

QGQLVESGGGLVQAGGSIRLSCAASGYIFRRYAMGWYRQAPGKEREFVATISRSGGSTYYADSVKGRFTISRDNAKNTVYLQMNSLKPEDTAVYYCNAGYGYGYPKYDYWGQCTQVTVSS
polyreactivity (PSR sort gate): high polyreactivity

QVQLVESGGGLVQAGGSLRLSCAASGFIFARNAMGWYRQAPGKERELVATITRSSGSTYYADSVKGRFTISRDNAKNTVYLQMNSLKPEDTAVYYCNARLYGTFWGQGTQVTVSS
polyreactivity (PSR sort gate): high polyreactivity

QVQLVESGGGLVQAGGSLRLSCAASGFIFTGNAMGWYRQAPGKERELLAAISSSGTRTYYADSVKGRFTISRDNASNTVYLQMNSLKPEDTAVYYCNKLYLVWNFYSGYDYWGQGTQVTVSS
polyreactivity (PSR sort gate): high polyreactivity

QVQLVESGGGLVQAGGSLRLSCDASGSIFNYYAMGWYRQAPGKERELVATITRGGSTYYADSVKGRFTISRDNAKNTVYLQMNILKPEDTAVYYCAKVGRSTAYQNGYDYWGQGTQVTVSS
polyreactivity (PSR sort gate): low polyreactivity

QVQLVESGGGLVQAGGSLRLSCAASGRIFGMYTKGWYRQETGKETELVAAINTGGSTYYADSVKGRFTISRDNAKNTVYLQMNSLKPEDTAVYYCNAETGWPWIYHYDYWGQGTQVTVSS
polyreactivity (PSR sort gate): low polyreactivity

QVQLVESGGGLVQAGGSLRLSCAASGFIFHRYAMGWYRQAPGKERELVASITRSGGSTYYADSVKGRFTISRDNAKNTVYLQMNSLKPEDTAVYYCAAQLPSYYKYPRHDYWGQGTQVTVSS
polyreactivity (PSR sort gate): high polyreactivity

QVQLVESGGGLVQAGGSLRLSCAAPGSTLSYYAMGWYRQATGKERELVAAISLSVGSTYYADSVKGRFTISRDNAKNTVYLQMNSLKPEDTAVYYCAADDFYSGPFRGDYWGQGTQVTVSS
polyreactivity (PSR sort gate): low polyreactivity

QVQLVESGGGLVQAGGSLRLSCAASGSIFRTYTMGWYRQAPGKEREFVAAISRSGGSTYYADSVKGRFTISRDNAKNTVYLQMNSLKPEDTAVYYCNARWGLGSYGYWGQGTQVTVTS
polyreactivity (PSR sort gate): high polyreactivity

QVQLVESGGGLVQAGGSLRLSCAASGFTLVNNAMGWYRQAPGKERELVAAISKRAGRTYYADSVKGRFTISRDNAKNTVYLQMNSLKPEDTAVYYCNAGKRVEYDYWGQGTQVTVSS
polyreactivity (PSR sort gate): high polyreactivity

QVQLVESGGGLVQEGGSLRVSCAASGRTFRWYTMGWYRQAPGKEREFVAAITWSGSSTNYADSVKGRFTISRDNAKNTVYLQMNSLKPEDTAVYYCAGEKRRRRDDYWGQGTHVTVSS
polyreactivity (PSR sort gate): high polyreactivity

QVQLVESGGGLVQAGRSLRLSCAPSGLTISSNAMGGYRQAPGKERELVAGISRRGGRTYYADSVKGRFTISRDTAKHTVYLQMNSLKPEDTAVYYCAADRVGNSYDYWGQGTQGTVSS
polyreactivity (PSR sort gate): high polyreactivity

QVQLVESGGGLVQAGGSLRLSCAASGRIFPFYAMGWNRQAPGKERELVAAITSSGGRTYYADSVKGRFTISRDNAKNTVYLQMNSLIPEDTAVYYCAADDTDYPEYDYWGQGTQVTVSS
polyreactivity (PSR sort gate): high polyreactivity

QVQLVESGGGLVQAGGSLRLSCAASGRIFSTYALGWYRQAPGKERELVAAISYSGASTYYADSVKGRFTISRDNAKNTVYLQIKSMKPEDTAVYYCAKATYPHEYDYWGQGTQVTVSS
polyreactivity (PSR sort gate): low polyreactivity

QVQLVESGGGLVQAGGSLRLSCAASGITLYNYAMGWYRQAPGKERELVAAISLSGGRTYYADSVKGRFTISRDNAKNTVYLQMNSLKPEDTAVYYCAADWLNSDPYNYWGQGTQVTVSS
polyreactivity (PSR sort gate): low polyreactivity

QVQLVESGGGLVQAGGSLLLSCAASAFTSDVYAMGWYRQAPGKETELVADISARGGSTYYADSVKGRFTISRDNAKNTVYLQMNSLKPEDTAVYYCAAEVYVGTIGFYADFFYYPVYYWVQGTQVTVSS
polyreactivity (PSR sort gate): low polyreactivity

QVQLVESGGGLVQAGGSLRLSCAASGYTFGWYAMGWYRQAPGTERELVAGISSAGSTNYADSVKGRFTISRDNAKNTVYLQMNSLKPEDTAVYYCARDKWGLRYAPTVDYWGQGTQLTVSS
polyreactivity (PSR sort gate): high polyreactivity

QVQLVESGGGLVQAGGSLRLSCAASGSTFPRNDMGWYRQAPGKERELVAAISRGGSTNYADSVKGRFTISRDNAKNTVYLQMNSLKPEDTAVYYCAAQIIESAYGMDYWGQGTQVTVSS
polyreactivity (PSR sort gate): low polyreactivity

QVQLVESGGGLVQAGGSFRLTCAASGRIFSPNAMGWYRQATGKEREFVAAINDRGGNTYYADSVKGRFTISRDNAKNTVYLQMNSLKPEDTAVYYCAATVTVFYTRYYYWGQGTQVTVSS
polyreactivity (PSR sort gate): high polyreactivity

QVQLVESGGGLVQAGGSLRLSCAASGFIFSWYAMGWYRQAPGKERELVAAIDQSGDSTYYADSVKGRFTISRDNAKNTVYLQMNSLKPEDTAVYYCAAQSYDYWYDYDYWGQGTQVTVSS
polyreactivity (PSR sort gate): high polyreactivity

QVQLVESGGGLVQAGGSLRLSCAASGSILVEYAMGWYRQAPGKERELVAAISSNGGSTYYADSVKGRFTISRDNAKNTVYLQMNSLKPEDTAVYYCATRQSWSDYYLNVDYDYWGQGTKVTVSS
polyreactivity (PSR sort gate): low polyreactivity

QVQLVESGGGLVQAGGSLRLSCAASGYTFGFYGMGWYRQAPGKERDLVAAISRSGGGSTYYADSVKGRFTISRDNAKNTVYLQMNSLKPEDTAVYYCNRDFDDEMWGQGTQVTVSS
polyreactivity (PSR sort gate): low polyreactivity

QVQLVESGGGLVQAGGSLRLSCAASGSIFSVYAMGWYRQAPGKERELVAAISRSGGSTYYADSVKGRFTISRDNAKNTVYLQMNSLKPEDTAVYYCAARLAGRGSSSSRVVRTGGYWGQGTQVTVSS
polyreactivity (PSR sort gate): high polyreactivity

QVQLVESAGGLVQAAGSLRLSCDASGFTTYYNAMGWYRQAPGKERELVAAISSSGGSTNYADSVKGRFTISRDNAKNTVYLQMNSLKPEDTAVYYCAARLYGWYYGGYTRYDYWGQGTQVTVSS
polyreactivity (PSR sort gate): high polyreactivity

QVQLVESGGGLVQAGGSLRLSCAASGSIFLIYAMGWYRQGPGKERELVAGINWSGSRTYYADSVKGRFTISRDNAKNTVYLQMNSLKPEDTAVYDCAARVRRPLYSAYDSWGQGTQVTVSS
polyreactivity (PSR sort gate): low polyreactivity

QVQLEESGGGLVQAGGSLRLSCAASGRIFSPNVRGWYRKATGKERELVAGITSSGGSTYYADSVKGRLTISRDNAKNTVYLQMNSLKPEYTAVYYCAAPWVGTFVSGRGYYWGQGTQVTVSS
polyreactivity (PSR sort gate): low polyreactivity
